Experimental findings from patent US20180148477A1 (published 2018) are described below.

The term IC50 denotes the concentration needed to halve the response being measured. A lower IC50 goes with inhibition by little substance.

B1: SEQ ID NO: 158 (peptide)
peptide: Ac-[Pen][NMeR]SD[Cha]L[Pen][2Nal][dE]-NH2
modifications: disulfide 1-7
SMILES: CC(=O)N[C@@H]1C(=O)N(C)[C@@H](CCCNC(=N)N)C(=O)N[C@@H](CO)C(=O)N[C@@H](CC(=O)O)C(=O)N[C@@H](CC2CCCCC2)C(=O)N[C@@H](CC(C)C)C(=O)N[C@H](C(=O)N[C@@H](Cc2ccc3ccccc3c2)C(=O)N[C@H](CCC(=O)O)C(N)=O)C(C)(C)SSC1(C)C
B2: SEQ ID NO: 160 (peptide)
peptide: Ac-[Pen][NMeR]SDIL[Pen][2Nal][dE]-NH2
modifications: disulfide 1-7
SMILES: CC[C@H](C)[C@@H]1NC(=O)[C@H](CC(=O)O)NC(=O)[C@H](CO)NC(=O)[C@H](CCCNC(=N)N)N(C)C(=O)[C@@H](NC(C)=O)C(C)(C)SSC(C)(C)[C@@H](C(=O)N[C@@H](Cc2ccc3ccccc3c2)C(=O)N[C@H](CCC(=O)O)C(N)=O)NC(=O)[C@H](CC(C)C)NC1=O
B3: SEQ ID NO: 164 (peptide)
peptide: Ac-[Pen][NMeR]SDTY[Pen][2Nal][dE]-NH2
modifications: disulfide 1-7
SMILES: CC(=O)N[C@@H]1C(=O)N(C)[C@@H](CCCNC(=N)N)C(=O)N[C@@H](CO)C(=O)N[C@@H](CC(=O)O)C(=O)N[C@@H]([C@@H](C)O)C(=O)N[C@@H](Cc2ccc(O)cc2)C(=O)N[C@H](C(=O)N[C@@H](Cc2ccc3ccccc3c2)C(=O)N[C@H](CCC(=O)O)C(N)=O)C(C)(C)SSC1(C)C
B4: SEQ ID NO: 162 (peptide)
peptide: Ac-[Pen][NMeR]SDTF[Pen][2Nal][dE]-NH2
modifications: disulfide 1-7
SMILES: CC(=O)N[C@@H]1C(=O)N(C)[C@@H](CCCNC(=N)N)C(=O)N[C@@H](CO)C(=O)N[C@@H](CC(=O)O)C(=O)N[C@@H]([C@@H](C)O)C(=O)N[C@@H](Cc2ccccc2)C(=O)N[C@H](C(=O)N[C@@H](Cc2ccc3ccccc3c2)C(=O)N[C@H](CCC(=O)O)C(N)=O)C(C)(C)SSC1(C)C
B5: SEQ ID NO: 157 (peptide)
peptide: Ac-[Pen][NMeR]SDFL[Pen][2Nal][dE]-NH2
modifications: disulfide 1-7
SMILES: CC(=O)N[C@@H]1C(=O)N(C)[C@@H](CCCNC(=N)N)C(=O)N[C@@H](CO)C(=O)N[C@@H](CC(=O)O)C(=O)N[C@@H](Cc2ccccc2)C(=O)N[C@@H](CC(C)C)C(=O)N[C@H](C(=O)N[C@@H](Cc2ccc3ccccc3c2)C(=O)N[C@H](CCC(=O)O)C(N)=O)C(C)(C)SSC1(C)C
B6: SEQ ID NO: 163 (peptide)
peptide: Ac-[Pen][NMeR]SDTQ[Pen][2Nal][dE]-NH2
modifications: disulfide 1-7
SMILES: CC(=O)N[C@@H]1C(=O)N(C)[C@@H](CCCNC(=N)N)C(=O)N[C@@H](CO)C(=O)N[C@@H](CC(=O)O)C(=O)N[C@@H]([C@@H](C)O)C(=O)N[C@@H](CCC(N)=O)C(=O)N[C@H](C(=O)N[C@@H](Cc2ccc3ccccc3c2)C(=O)N[C@H](CCC(=O)O)C(N)=O)C(C)(C)SSC1(C)C
B7: SEQ ID NO: 161 (peptide)
peptide: Ac-[Pen][NMeR]SD[hLeu]L[Pen][2Nal][dE]-NH2
modifications: disulfide 1-7
SMILES: CC(=O)N[C@@H]1C(=O)N(C)[C@@H](CCCNC(=N)N)C(=O)N[C@@H](CO)C(=O)N[C@@H](CC(=O)O)C(=O)N[C@@H](CCC(C)C)C(=O)N[C@@H](CC(C)C)C(=O)N[C@H](C(=O)N[C@@H](Cc2ccc3ccccc3c2)C(=O)N[C@H](CCC(=O)O)C(N)=O)C(C)(C)SSC1(C)C
B8: SEQ ID NO: 159 (peptide)
peptide: Ac-[Pen][NMeR]SDLL[Pen][2Nal][dE]-NH2
modifications: disulfide 1-7
SMILES: CC(=O)N[C@@H]1C(=O)N(C)[C@@H](CCCNC(=N)N)C(=O)N[C@@H](CO)C(=O)N[C@@H](CC(=O)O)C(=O)N[C@@H](CC(C)C)C(=O)N[C@@H](CC(C)C)C(=O)N[C@H](C(=O)N[C@@H](Cc2ccc3ccccc3c2)C(=O)N[C@H](CCC(=O)O)C(N)=O)C(C)(C)SSC1(C)C
B9: SEQ ID NO: 75 (peptide)
peptide: Ac-[Pen][NMeR]SDTL[Pen][2Nal]E-NH2
modifications: disulfide 1-7
SMILES: CC(=O)N[C@@H]1C(=O)N(C)[C@@H](CCCNC(=N)N)C(=O)N[C@@H](CO)C(=O)N[C@@H](CC(=O)O)C(=O)N[C@@H]([C@@H](C)O)C(=O)N[C@@H](CC(C)C)C(=O)N[C@H](C(=O)N[C@@H](Cc2ccc3ccccc3c2)C(=O)N[C@@H](CCC(=O)O)C(N)=O)C(C)(C)SSC1(C)C

Bridge positions count the residues as written; N and C are the ends. Square brackets hold non-standard residues; d marks the D form. Bip = N[C@@H](Cc1ccc(-c2ccccc2)cc1)C(=O)O; 1Nal = N[C@@H](Cc1cccc2ccccc12)C(=O)O; 2Nal = N[C@@H](Cc1ccc2ccccc2c1)C(=O)O; NMeR = CN[C@@H](CCCNC(=N)N)C(=O)O; Tic = O=C(O)[C@@H]1Cc2ccccc2CN1; β3hE = N[C@@H](CCC(=O)O)CC(=O)O; Cha = N[C@@H](CC1CCCCC1)C(=O)O; Cit = NC(=O)NCCC[C@H](N)C(=O)O; NMeK = CN[C@@H](CCCCN)C(=O)O; Pen = CC(C)(S)[C@H](N)C(=O)O; hLeu = CC(C)CC[C@H](N)C(=O)O; Dab = NCC[C@H](N)C(=O)O

The test concerns the target human α4β7 integrin on cells (human) (UniProt P13612). In words: RPMI8866 adhesion to MAdCAM-1.
On to Ac-[Pen][NMeR]SDTL[Pen][Tic][dE][dK]-NH2 (disulfide 1-7; also: dimer (monomer)2-DIG, DIG attachment place not given here) [SEQ ID NO: 80], for which the IC50 is over 50 nM.
Then Ac-[Pen][NMeR]SDTL[Pen][2Nal][dF][dK]-NH2 (disulfide 1-7 (inferred); also: homodimer via DIG) [SEQ ID NO: 117], with over 100 nM; and Ac-[Pen][NMeR]SDTL[Pen][Bip][β3hE][dK]-NH2 (disulfide 1-7 (inferred); also: homodimer via DIG) [SEQ ID NO: 135], with under 10 nM; and Ac-[Pen][NMeR]SDTL[Pen][Bip]E[NMeK]-NH2 (disulfide 1-7 (inferred); also: homodimer via DIG) [SEQ ID NO: 136], with under 10 nM.
The figure for Ac-[Pen][NMeR]SDTL[Pen]W[Tic][dK]-NH2 (disulfide 1-7; also: dimer via DIG, attachment site not given here) [SEQ ID NO: 109] is over 100 nM; for B1 it is over 1000 nM.
The figure for B2 is over 1000 nM; for Ac-[Pen][NMeR]SDTL[Pen]W[Cit][dK]-NH2 (disulfide 1-7; also: dimer (monomer)2-DIG, DIG attachment place not given here) [SEQ ID NO: 84] it is over 10 nM.
Take B3: the 50% inhibitory concentration (IC50) was over 1000 nM.
In the case of B4, the IC50 was over 1000 nM.
Ac-[Pen][NMeR]SDTL[Pen]WE[Dab]-NH2 (disulfide 1-7; also: dimer (monomer)2-DIG, DIG attachment place not given here) [SEQ ID NO: 97] returned an IC50 of under 10 nM.
Then Ac-[Pen][NMeR]SDTL[Pen][1Nal][dF][dK]-NH2 (disulfide 1-7; also: dimer via DIG, attachment site not given here) [SEQ ID NO: 111], with over 100 nM; and B5, with over 1000 nM.
Then B6, with over 1000 nM; and Ac-[Pen][NMeR]SDTL[Pen][2Nal][dH][dK]-NH2 (disulfide 1-7 (inferred); also: homodimer via DIG) [SEQ ID NO: 118], with over 25 nM.
Then Ac-[Pen][NMeR]SDVL[Pen][2Nal][dE]-NH2 (disulfide 1-7 (inferred)) [SEQ ID NO: 156], with over 100 nM.
With Ac-[Pen][NMeR]SDTL[Pen][1Nal][Tic][dK]-NH2 (disulfide 1-7 (inferred); also: homodimer via DIG) [SEQ ID NO: 115], the IC50 is over 100 nM.
The figure for B7 is over 1000 nM; for Ac-[Pen][NMeR]SDTL[Pen][1Nal][dR][dK]-NH2 (disulfide 1-7 (inferred); also: homodimer via DIG) [SEQ ID NO: 114] it is over 100 nM.
As to Ac-[Pen][NMeR]SDTL[Pen][2Nal][Tic][dK]-NH2 (disulfide 1-7 (inferred); also: homodimer via DIG) [SEQ ID NO: 121], the half-inhibitory concentration (IC50) was over 100 nM.
The figure for Ac-[Pen][NMeR]SDTL[Pen][1Nal][dL][dK]-NH2 (disulfide 1-7 (inferred); also: homodimer via DIG) [SEQ ID NO: 113] is over 500 nM; for Ac-[Pen][NMeR]SDTL[Pen][2Nal][dR][dK]-NH2 (disulfide 1-7 (inferred); also: homodimer via DIG) [SEQ ID NO: 120] it is over 1000 nM.
Ac-[Pen][NMeR]SDTL[Pen][2Nal][dL][dK]-NH2 (disulfide 1-7 (inferred); also: homodimer via DIG) [SEQ ID NO: 119] came in with a concentration for half-maximal inhibition (IC50) of over 500 nM.
Then Ac-[Pen][NMeR]SDTL[Pen][1Nal][dH][dK]-NH2 (disulfide 1-7 (inferred); also: homodimer via DIG) [SEQ ID NO: 112], with over 50 nM.
Molecule Ac-[Pen][NMeR]SDTL[Pen][1Nal][dT][dK]-NH2 (disulfide 1-7 (inferred); also: homodimer via DIG) [SEQ ID NO: 116] returned an IC50 of over 50 nM.
Then B8, with over 1000 nM; and B9, with over 50 nM; and Ac-[Pen][NMeR]SDTL[Pen][2Nal][dT][dK]-NH2 (disulfide 1-7 (inferred); also: dimer via DIG linker) [SEQ ID NO: 140], with over 10 nM.
Then Ac-[Pen][NMeR]SDTL[Pen][Bip][dE][dK]-NH2 (disulfide 1-7; also: dimer via DIG, attachment site not given here) [SEQ ID NO: 108], with over 10 nM.
